# Results taken from patent US20240398942A1, “USE OF ANTI-CD40 ANTIBODY” (CHIA TAI TIANQING PHARMACEUTICAL GROUP CO., LTD., priority 2021, published 2024).
# B1: Chimeric C1H1: C1H1 variable regions (SEQ ID NOs: 19, 23) on human IgG1 heavy chain and human κ light chain constant regions (antibody, V domains shown)
# VH: EVKLVESGGGLVKPGASLKLSCAASGFTFSNYGISWVRQTSDKRLEWVASISSGGDNTYYPDNVKGRFTISRENAKNTLYLQMSSLKSEDTALYYCARAGEKAMDYWGQGTSVTVSS
# VL: DIVLTQSPVTLSVTPGDSVSLSCRASQTINNNLHWYQQKSHESPRLLIKYASQSISGIPSRFSGSGSGTDFTLSINSVETEDFGIYFCQQFSSWPLTFGAGTKLELK
# modifications: human IgG1 and kappa constant regions; VH of mouse and chimeric C1H1 antibodies; VL of mouse and chimeric C1H1 antibodies
# B2: Mouse C1H1: mouse anti-CD40 monoclonal antibody, VH SEQ ID NO: 19, VL SEQ ID NO: 23 (antibody, V domains shown)
# VH: B1 VH
# VL: B1 VL
# modifications: VH of mouse and chimeric C1H1 antibodies; VL of mouse and chimeric C1H1 antibodies
# B3: huC1H1-V3: humanized C1H1 anti-CD40 antibody, VH SEQ ID NO: 20 X1=A, VL SEQ ID NO: 24 X1=Y X2=Y, human IgG2/κ (antibody, V domains shown)
# VH: EVQLVESGGGLVKPGGSLRLSCAASGFTFSNYGISWVRQAPGKGLEWVXSISSGGDNTYYPDNVKGRFTISRDNAKNSLYLQMNSLRAEDTAVYYCARAGEKAMDYWGQGTLVTVSS
# VL: EIVLTQSPATLSLSPGERATLSCRASQTINNNLHWYQQKPGQAPRLLIXYASQSISGIPARFSGSGSGTDFTLTISSLEPEDFAVYXCQQFSSWPLTFGGGTKVEIK
# modifications: not fully specified; variable positions X1=A; VL X1=Y X2=Y; IgG2/kappa constant; VH of huC1H1-V1 to huC1H1-V4; VARIANT 49 X can be A or S; VL of huC1H1-V1 to huC1H1-V4; VARIANT 49 X can be K or Y; VARIANT 87 X can be F or Y
# B4: huC1H1-V4: humanized C1H1 anti-CD40 antibody, VH SEQ ID NO: 20 X1=S, VL SEQ ID NO: 24 X1=Y X2=Y, human IgG2/κ (antibody, V domains shown)
# VH: B3 VH
# VL: B3 VL
# modifications: not fully specified; variable positions X1=S; VL X1=Y X2=Y; IgG2/kappa constant; VH of huC1H1-V1 to huC1H1-V4; VARIANT 49 X can be A or S; VL of huC1H1-V1 to huC1H1-V4; VARIANT 49 X can be K or Y; VARIANT 87 X can be F or Y
# How the values were obtained:
# [1] = test system: Cynomolgus monkey CD40-his; test: Biacore surface plasmon resonance affinity and binding kinetics; settings: for Kd: dissociation rate
# Description: (§1) The affinity and binding kinetics of the anti-CD40 antibody in the present application were characterized by a Biacore T200 system (GE Healthcare, Pittsburgh, PA, USA).
# (§2) Briefly, a goat anti-human IgG (GE Healthcare, Cat. No. BR100839, human antibody capture kit) was covalently linked to a CM5 chip (GE Healthcare, Cat. No. BR100530, carboxymethylated dextran-coated chip) via the primary amine group using a standard amine coupling kit supplied by Biacore (GE Healthcare, Pittsburgh, PA, USA). Unreacted portions on the biosensor surface were blocked with ethanolamine. Then, the anti-CD40 antibody of the present application and two benchmark antibodies (BM1 (dacetuzumab, Genentech Inc., also referred to CD40-BM1, prepared in-house; the heavy and light chain amino acid sequences are set forth in SEQ ID NOs: 40 and 41, respectively) and BM2 (selicrelumab, Abgenix Inc., also referred to CD40-BM2, prepared in-house; the heavy and light chain amino acid sequences are set forth in SEQ ID NOS: 42 and 43, respectively)) at a concentration of 66.67 nM were directed through the chip at a flow rate of 10 μL/min. Then, serially diluted recombinant human CD40-his (Acro biosystems, Cat. No. CD0-H5228, serially 2-fold diluted from 80 nM in HBS-EP^+ buffer (supplied by Biacore)) or cynomolgus monkey CD40-his protein (Acro biosystems, Cat. No. CD0-C52H6, serially 2-fold diluted from 80 nM in HBS-EP^+ buffer (supplied by Biacore)) was directed through the chip at a flow rate of 30 μL/min. The antigen-antibody binding kinetics was tracked for 2 min and the dissociation kinetics was tracked for 10 min. The association and dissociation curves were fitted to a 1:1 Langmuir binding model using BIAcore evaluation software. KD, Ka, and Kd values were determined.
# Human CD40-his [2] = target: T1, Human CD40-his (Homo sapiens, UniProt P25942); test: as above; settings: for Kd: dissociation rate
# T1 construct: His; purchased Acro biosystems CD0-H5228
# Description: as §1, §2
# Human CD40-his [3] = target: T1, Human CD40-his; test: Octet kinetics of humanized C1H1 antibodies; type: binding; settings: Table 3, Octet; for Ka: humanized antibodies in cell supernatant, chimeric and benchmark 5 μg/mL
# Protocol: After six days of culture in a shake flask, the cell supernatant containing the humanized antibodies huC1H1-V1 to huC1H1-V4 was harvested and the binding affinity of the antibodies to human CD40 was determined on an Octet system (Fortebio, Octet RED 96) according to the following procedures. Briefly, an anti-human IgG Fc capture (AHC) biosensor (from ForteBio) was pre-soaked in a 10 mM glycine solution (pH 1.5) for 3 s, and then soaked in a running buffer (PBST containing 0.5% w/v of BSA) for 3 s. The pre-soaking and soaking procedures were repeated 3 times. Then, the sensor was soaked in the cell supernatant containing the humanized anti-CD40 antibody, chimeric antibody C1H1 dissolved in HBS-EP^+ buffer at a concentration of 5 μg/mL, or the benchmark dissolved in HBS-EP^+ buffer at a concentration of 5 μg/mL for 120 s, and then soaked in the running buffer for 5 min. The new baseline was run in the running buffer for 180 s. The sensor was then soaked for 120 s in human CD40-his protein (Acro biosystems, Cat. No. CD0-H5228) 2-fold serially diluted from 40 nM in the running buffer and for 10 min in the running buffer […]. Finally, the sensor was pre-soaked in a 10 mM glycine solution (pH 1.5) for 3 s, and then soaked in the running buffer for 3 s. The pre-soaking and soaking procedures were repeated 3 times. The association and dissociation curves were fitted to a 1:1 Langmuir binding model using ForteBio Data Analysis 8.1.
# human CD40-Fc protein = human CD40-Fc protein (Homo sapiens, UniProt P25942); test: Capture ELISA binding; settings: in words, FIGS. 1A-1C
# Protocol: For capture ELISA, an affinity-purified goat anti-human IgG (F(ab′)2 fragment-specific, Jackson Immuno Research, Cat. No. 109-005-097) in PBS at a concentration of 2 μg/mL was immobilized on a 96-well plate at 100 μL/well and incubated overnight at 4° C. The plate was washed once with a washing buffer (PBS+0.05% v/v of Tween-20, PBST) and then blocked with 200 μL/well blocking buffer (PBST containing 5% w/v of skim milk) for 2 h at 37° C. The plate was washed 4 times, and the anti-CD40 antibody of the present application, BM1, BM2, and a negative control hIgG (human immunoglobulin for intravenous injection (pH 4), Hualan Biological Engineering Inc.) serially 5-fold diluted from 66.7 nM in a PBST containing 2.5% w/v of skim milk was added at 100 μL per well. The plate was incubated for 40 min at 37° C. and washed 4 times. A biotinylated human CD40-Fc protein (amino acid residues 21-193 of SEQ ID NO: 30 linked to the N terminus of amino acid residues 99-330 of SEQ ID NO: 28, dissolved in PBST containing 2.5% w/v of skim milk at a concentration of 1.15 nM) was added at 100 μL/well to a 96-well plate coated with the anti-CD40 antibody. The plate was incubated at 37° C. for 40 min and washed 4 times. An HRP-labeled streptavidin (diluted at 1:10000 in PBST, Jackson Immuno Research, Cat. No. 016-030-084) was added at 100 μL/well, and the plate was incubated at 37° C. for another 40 min. […]
# [4] = Table 2, Biacore, association rate
# [5] = Table 5, Biacore, purified antibodies
# T1 sequence (P25942 21-277): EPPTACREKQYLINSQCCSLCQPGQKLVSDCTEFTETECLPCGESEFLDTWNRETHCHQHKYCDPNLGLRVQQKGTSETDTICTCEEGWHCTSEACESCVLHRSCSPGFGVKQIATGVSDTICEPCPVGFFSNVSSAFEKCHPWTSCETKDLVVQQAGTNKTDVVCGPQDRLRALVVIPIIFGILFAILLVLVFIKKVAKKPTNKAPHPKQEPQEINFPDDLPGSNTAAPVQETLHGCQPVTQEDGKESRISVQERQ
# Chain of human CD40-Fc protein (P25942 21-193): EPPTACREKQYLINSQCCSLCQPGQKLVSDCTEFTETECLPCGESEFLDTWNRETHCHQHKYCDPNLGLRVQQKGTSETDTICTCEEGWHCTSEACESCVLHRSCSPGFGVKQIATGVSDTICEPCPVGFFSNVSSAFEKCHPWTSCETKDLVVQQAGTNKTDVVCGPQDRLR
Molecule,"Ka [1, 4] [M⁻¹ s⁻¹]","Kd ([1]; Table 2, Biacore) [s⁻¹]","Kd ([1]; Table 5, Biacore) [s⁻¹]","Ka [1, 5] [M⁻¹ s⁻¹]",Ka (Human CD40-his [2]; [4]) [M⁻¹ s⁻¹],"Kd (Human CD40-his [2]; Table 2, Biacore) [s⁻¹]","Kd (Human CD40-his [2]; Table 5, Biacore) [s⁻¹]",Ka (Human CD40-his [2]; [5]) [M⁻¹ s⁻¹],Kd (Human CD40-his [3]; dissociation rate) [s⁻¹],Ka (Human CD40-his [3]) [M⁻¹ s⁻¹],Binding ability to human CD40 in capture ELISA (human CD40-Fc protein),Kd (Human CD40-his [3]; read-out: KD) [nM]
B1,1.39e+06,0.001478,0.002147,2.54e+06,1.82e+06,0.001567,0.002221,2.51e+06,0.000929,1.47e+06,higher binding affinity and ability to human CD40,
B2,1.39e+06,0.001184,0.000863,2.29e+06,1.79e+06,0.001227,0.000897,2.1e+06,,,,
B3,,,,,,,,,0.00283,523000,,5.41
B4,,,,,,,,,0.00367,424000,,8.66
